From patent publication US20220347267A1, “METHODS TO IMPROVE PATIENT RESPONSE TO IMMUNE CHECKPOINT INHIBITORS AND FUNCTIONAL TESTS TO PREDICT RESPONSE” (Biomarker Strategies, LLC, priority 2019, published 2022)

Columns and labels:
Format in all cases: cell-based, human
[1] = tested on: SKMES1 cells; experiment: Western blot of secreted and intact PDL1 in media and lysate; conditions: 10 ng/mL IFNg for 24 h, concentrated media and lysate, antibody clone E1J2J
Experimental: Different forms of PDL1 can be expressed at baseline as well as after modulation, and the abundance of each form will impact response to therapy. The two major forms are membrane bound and soluble (secreted or intracellular compartments). The relative ratios of the forms, and their cellular locations, can be changed by a modulator and will require different strategies for optimal ICI therapy. As way of example, the cell line SKMES1 was treated with vehicle or 10 ng/mL IFNg for 24 h. After treatment, media was collected and concentrated using an Amicon ultra 0.5 mL centrifugal filter with a 10 kDa cutoff. The retentate, containing proteins >10 kDa, was recovered in a clean tube at 14000 rpm for 5 min. Simultaneously, lysates of the same cells were made. PDL1 was then detected using 10% Tris-Glycine SDS gels and PVDF membranes. The western blot was carried out using 5% non-fat dry milk in TBST for 1h, followed by incubation with primary antibody against PDL1 (clone E1J2J; raised to the extracellular portion of PDL1) in 2% BSA for overnight, then anti-rabbit HRP secondary antibody before using a chemiluminescent reagent (Bio-Rad). […] Thus, by using westerns where the intact and secreted forms of PDL1 are first resolved by MW and different types of sample/resource material (media vs lysate or blood/plasma vs tumor), the response to therapy can be predicted. […]

[2] = tested on: BT549 cells; experiment: PD-L1 western blot after modulators (EM and MTAs); conditions: Breast BT549, 30 minutes, 3 hours, 24 hours
Excerpt: (§1) Cell lines were acquired from ATCC, Sigma, or DSMZ. Human non-small cell lung carcinoma (NSCLC) cell lines H292 (ATCC no. CRL-1848.), H1299 (ATCC no. CRL-5803), H520 (ATCC no. CRL-5811), CALU6 (ATCC no. HTB-56), H1975 (ATCC no. CRL-5908), H460 (ATCC no. HTB-177), H2126 (ATCC no. CCL-256), H1650 (ATCC no. CRL-5883), and H2087 (ATCC no. CRL-5922) were used for this experiment along with head and neck squamous cell carcinoma (HNSCC) cell lines BHY (DSMZ ACC 404), CAL27 (ATCC no. CRL-2095), KYSE410 (Sigma), and A253 (ATCC no. HTB-41), melanoma cell lines A375 (ATCC no. CRL-1619), COL0853 (Sigma), and MM127 (Sigma) pancreatic cancer cell lines BXPC3 (ATCC no. CRL-1687), colorectal cancer cell lines […], HCT116 (ATCC no. CCL-247EMT), and breast cancer cell lines BT549 (ATCC no. HTB-122), BT20 (ATCC no. HTB-19), and T47D (ATCC no. HTB-133). Cells were maintained in manufacturer-recommended conditions at 37° C. inside humidified 5% CO2 incubators. Sub-cultivation and harvesting for all cell lines were performed using Accutase (GIBCO Life Technologies; cat. no. A1110501) at 37° C. for 10 minutes. Cell viability was measured using trypan blue exclusion staining in conjunction with the Countess II Automated Cell Counter (Thermo Fischer Scientific; cat. no. AMQAX1000). Measurements were made in duplicate and the average number of viable cells was recorded prior to experiments.
(§2) T7039), and IL-10 (50 ng/ml; Sigma Aldrich cat. no. SRP3071) were administered to cell lines for various times including 30 minutes, 3 hour, and 24 hour time intervals prior to cell lysis and protein extraction.
(§3) To determine the effects of the aforementioned molecules on the modulation of PD-L1, we selected various NSCLC, HNSCC, breast cancer, melanoma, colorectal cancer, and pancreatic cancer cell lines as examples. Other diseases or cell lines could be used readily as could more complex samples such as cells isolated from xenografts and clinical samples. Cells were plated, for three different time points (30 minutes, 3 hours, and 24 hours), inside 6-well petri dishes with 2 mL of appropriate medium. Plates were incubated for 24 hours in 5% CO2 incubators at 37° C. After 24 hours, each 6-well plate was washed with PBS (Gibco Life Technologies, cat. no. 10010023) followed by fresh media being added along with each cell line's vehicle control or appropriate modulator for each specific time point, and were placed in CO2 incubators until their modulation time point was reached. Other conditions can be readily used, such as processing on automated systems such as SnapPath. At the end of each time point, while keeping plates on ice, cell lysis was conducted by aspirating culture medium from each plate, washing of each plate three times with 5 ml of cold PBS (Gibco Life Technologies, cat. no. 10010023) and culminated with the addition of cold 1× lysis buffer containing (Cell Signaling, cat. no. 9803 S) protease inhibitor cocktail (Cell Signaling, cat. no. 5871S), phosphatase inhibitor cocktail (Cell Signaling, cat. no. 5870S), and PMSF (Fisher Scientific, cat. no. ICN19538101). Plates were then placed on ice for ten minutes, swirling each plate intermittently. Aliquots of protein lysates were prepared and then stored at −80° C. until protein quantification and Western blot analysis was to be conducted. The protein concentration of each lysate was analyzed by using the Pierce 660 Protein Assay Reagent (Thermo Fisher Scientific, cat. no. 22660) and testing of each sample was conducted in duplicate. Two μg of protein was then loaded per lane into 10% Midi-PROTEAN TGX Precast Gels (Bio Rad, cat. no. 5671034) along with Kaleidoscope Prestained Protein Standard (BioRad, cat. no. 1610375) which ran at 220V for 45 minutes. Proteins were transferred to mini-PVDF membranes (BioRad, cat. no. 1704156) in 3 minutes using the Trans-Blot Turbo Transfer System (BioRad, cat. no. 1704150EDU).

[3] = tested on: H292 cells; experiment: PD-L1 western blot after modulators (EM and MTAs); conditions: NSCLC H292, 30 minutes, 3 hours, 24 hours
Excerpt: as §1, §2, §3

[4] = tested on: H1650 cells; experiment: PD-L1 western blot after modulators (EM and MTAs); conditions: NSCLC H1650, 30 minutes, 3 hours, 24 hours
Excerpt: as §1, §2, §3

[5] = tested on: H460 cells; experiment: PD-L1 western blot after modulators (EM and MTAs); conditions: NSCLC H460, 30 minutes, 3 hours, 24 hours
Excerpt: as §1, §2, §3

B1: IFNγ: human IFNγ, modulator (10 ng/ml; Sigma Aldrich) (protein, UniProt P01579 24-161, looked up)
Interferon gamma: QDPYVKEAENLKKYFNAGHSDVADNGTLFLGILKNWKEESDRKIMQSQIVSFYFKLFKNFKDDQSIQKSVETIKEDMNVKFFNSNKKKRDDFEKLTNYSVTDLNVQRKAIHELIQVMAELSPAAKTGKRKRSQMLFRG
expression of secreted and intact PDL1 [1]: detected the expression of secreted and intact PDL1
PD-L1 Response [2]: Up
PD-L1 Response [3]: Up
PD-L1 Response [4]: Up
PD-L1 Response [5]: Up
